Results published in PMC5389673 (Nucleic Acids Research, 2016).

B1: VapC1 toxin from Caulobacter crescentus CB15, full length, seleno-methionine substituted (natural protein)
chain: MAYVLDTNVAIHLRDGDPEVTTRVTALNGAILLSIISRVELEGGVYREAAQAGLRRSRLDVMLKVLPVLDFDGAAADEYRRIVESAGYSRRKVVDRMIAAQALAHRATFVTFNADDFRDIPGLSLLAW
modifications: seleno-methionine in place of methionine
B2: VapB1 antitoxin from Caulobacter crescentus CB15, full length, seleno-methionine substituted (natural protein, UniProt Q9AC34 1-79, looked up)
chain: MARATGKTFRSGNSEAVRLPRDLAFGADVELTLIRSGDVLTIYPSKGSIADLVATLNQMPRPDSVEIRDEDLFPERPGL
modifications: seleno-methionine in place of methionine

Target: the molecule itself
Test: crystal structure

Protein | stoichiometry N
B1 | 2
B2 | 2
